Laboratory results: the supplement of paper PMC6757056
± gives the standard deviation of the averaged measurements.

B1: library; a variant is named by its letters at N, in order (parent)
chain: GCUGUCACCGGUGCUUGGUACGUUAUAUUCAGCCGGUCUGAUGAGUCUNNNNNNAGACGAAACAGC

Columns and labels:
(6R,S)-folinic acid [1] = variants of: B1; experiment: normalized RNA/DNA level without ligand (relative to sTRSVctl = 100) (log10 (% of sTRSVctl)); HEK293T overexpressing SLC46A1; higher = less ribozyme self-cleavage, higher mRNA level; conditions: without (6R,S)-folinic acid; ligand present: no
Procedure, shortened: (§1)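 For each 6-well well, 4 µg of library plasmid encoding mCherry-linked ribozyme switches, or eGFP-linked ones in some ligand experiments, was transfected into HEK293T. Any ligand was added 1 h before transfection, and RNA was extracted with EDTA 72 h after it, then reverse-transcribed, amplified, barcoded and sequenced. RNA level was obtained by dividing RNA reads by DNA reads, normalizing to a spiked-in non-cleaving sequence or to the top sequences, then scaling and log-transforming. The top set was 25 sequences, scaling was ×100 with log10, and ≥100 DNA reads were required.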

(6R,S)-folinic acid [2] = variants of: B1; experiment: normalized RNA/DNA level with ligand (relative to sTRSVctl = 100) (log10 (% of sTRSVctl)); HEK293T overexpressing SLC46A1; ligand concentration (+) RNA-Seq: 6 mM; higher = less ribozyme self-cleavage, higher mRNA level; conditions: with (6R,S)-folinic acid; ligand present: yes
Procedure, shortened: as §1

Variant | normalized RNA/DNA level without ligand (log10) ((6R,S)-folinic acid [1]) | normalized RNA/DNA level with ligand (log10) ((6R,S)-folinic acid [2])
GCUGUCACCGGUGCUUGGUACGUUAUAUUCAGCCGGUCUGAUGAGUCUUCCGCAAGACGAAACAGC | 2.01 ± 0.03 | 2.01 ± 0.063
GCUGUCACCGGUGCUUGGUACGUUAUAUUCAGCCGGUCUGAUGAGUCUUCCGCCAGACGAAACAGC | 2.03 ± 0.021 | 2.0083 ± 0.00058
GCUGUCACCGGUGCUUGGUACGUUAUAUUCAGCCGGUCUGAUGAGUCUUCCGAAAGACGAAACAGC | 1.941 ± 0.015 | 1.978 ± 0.019
GCUGUCACCGGUGCUUGGUACGUUAUAUUCAGCCGGUCUGAUGAGUCUUCCGACAGACGAAACAGC | 2.029 ± 0.013 | 2.031 ± 0.0089
GCUGUCACCGGUGCUUGGUACGUUAUAUUCAGCCGGUCUGAUGAGUCUUCCGAUAGACGAAACAGC | 1.96 ± 0.026 | 2 ± 0.038
GCUGUCACCGGUGCUUGGUACGUUAUAUUCAGCCGGUCUGAUGAGUCUGCCGAUAGACGAAACAGC | 2.015 ± 0.007 | 2.05 ± 0.03
GCUGUCACCGGUGCUUGGUACGUUAUAUUCAGCCGGUCUGAUGAGUCUGCCGACAGACGAAACAGC | 1.982 ± 0.0078 | 2.04 ± 0.029
GCUGUCACCGGUGCUUGGUACGUUAUAUUCAGCCGGUCUGAUGAGUCUACCGCAAGACGAAACAGC | 2.009 ± 0.018 | 2.01 ± 0.024
GCUGUCACCGGUGCUUGGUACGUUAUAUUCAGCCGGUCUGAUGAGUCUACCGCCAGACGAAACAGC | 2.045 ± 0.02 | 2.05 ± 0.041
GCUGUCACCGGUGCUUGGUACGUUAUAUUCAGCCGGUCUGAUGAGUCUCCCGCCAGACGAAACAGC | 2.0796 ± 0.00065 | 2.05 ± 0.03
GCUGUCACCGGUGCUUGGUACGUUAUAUUCAGCCGGUCUGAUGAGUCUCCCGCAAGACGAAACAGC | 2.06 ± 0.035 | 2.071 ± 0.02
GCUGUCACCGGUGCUUGGUACGUUAUAUUCAGCCGGUCUGAUGAGUCUCCCGCGAGACGAAACAGC | 2.09 ± 0.023 | 2.01 ± 0.034
GCUGUCACCGGUGCUUGGUACGUUAUAUUCAGCCGGUCUGAUGAGUCUACCGAUAGACGAAACAGC | 1.973 ± 0.0074 | 1.99 ± 0.044
GCUGUCACCGGUGCUUGGUACGUUAUAUUCAGCCGGUCUGAUGAGUCUACCGACAGACGAAACAGC | 2.0415 ± 0.00053 | 2.03 ± 0.058
GCUGUCACCGGUGCUUGGUACGUUAUAUUCAGCCGGUCUGAUGAGUCUGCCGCCAGACGAAACAGC | 2.024 ± 0.0036 | 2.0189 ± 0.00031
GCUGUCACCGGUGCUUGGUACGUUAUAUUCAGCCGGUCUGAUGAGUCUGCCGCGAGACGAAACAGC | 2.0553 ± 0.00018 | 2.092 ± 0.0094
GCUGUCACCGGUGCUUGGUACGUUAUAUUCAGCCGGUCUGAUGAGUCUGCCGCAAGACGAAACAGC | 2.04 ± 0.027 | 2.044 ± 0.019
GCUGUCACCGGUGCUUGGUACGUUAUAUUCAGCCGGUCUGAUGAGUCUCCCGAAAGACGAAACAGC | 2.029 ± 0.0067 | 2.02 ± 0.056
GCUGUCACCGGUGCUUGGUACGUUAUAUUCAGCCGGUCUGAUGAGUCUCCCGAGAGACGAAACAGC | 1.95 ± 0.0086 | 1.99 ± 0.022
GCUGUCACCGGUGCUUGGUACGUUAUAUUCAGCCGGUCUGAUGAGUCUCCCGAUAGACGAAACAGC | 2.002 ± 0.016 | 2.017 ± 0.0026
GCUGUCACCGGUGCUUGGUACGUUAUAUUCAGCCGGUCUGAUGAGUCUCCCGACAGACGAAACAGC | 2.043 ± 0.016 | 2.05 ± 0.033
